Results on one molecule are retold here after patent US20250144178A1, “PHARMACEUTICAL COMPOSITION FOR CANCER TREATMENT COMPRISING FUSION PROTEIN INCLUDING IL-12 AND ANTI-FAP ANTIBODY AND ANTICANCER AGENT” (KANAPH THERAPEUTICS INC., priority 2022, published 2025).

For one assay, the target named is T1, recombinant mouse FAP (Mus musculus, UniProt P97321).
T1 sequence (P97321 1-761): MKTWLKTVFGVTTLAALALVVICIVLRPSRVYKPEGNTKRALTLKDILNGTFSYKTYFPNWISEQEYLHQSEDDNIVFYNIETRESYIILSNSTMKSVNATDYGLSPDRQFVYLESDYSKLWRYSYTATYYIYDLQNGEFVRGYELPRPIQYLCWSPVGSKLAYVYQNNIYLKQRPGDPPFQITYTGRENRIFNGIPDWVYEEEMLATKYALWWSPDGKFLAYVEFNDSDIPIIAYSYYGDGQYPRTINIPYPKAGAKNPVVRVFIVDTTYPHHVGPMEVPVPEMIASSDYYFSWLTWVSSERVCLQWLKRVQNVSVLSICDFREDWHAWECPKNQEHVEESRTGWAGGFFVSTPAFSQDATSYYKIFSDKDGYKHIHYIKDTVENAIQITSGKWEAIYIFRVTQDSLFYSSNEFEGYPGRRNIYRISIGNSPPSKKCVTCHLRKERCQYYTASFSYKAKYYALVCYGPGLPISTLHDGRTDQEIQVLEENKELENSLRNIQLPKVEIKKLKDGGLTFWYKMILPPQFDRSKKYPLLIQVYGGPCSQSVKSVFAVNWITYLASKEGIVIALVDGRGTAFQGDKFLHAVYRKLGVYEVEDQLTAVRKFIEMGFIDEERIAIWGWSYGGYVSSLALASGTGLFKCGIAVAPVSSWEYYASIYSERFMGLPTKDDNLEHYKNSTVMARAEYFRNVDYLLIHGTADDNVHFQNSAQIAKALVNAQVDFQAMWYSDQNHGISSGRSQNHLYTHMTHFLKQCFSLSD
Nature of the assay: Surface plasmon resonance binding to recombinant mouse FAP. The conditions noted are these: SPR, 2 μg/ml protein, FIGS. 13 and 14. On the procedure:
The surface of the CM5 chip was activated with a 1:1 mixture of […] (N-hydroxysuccinimide) and […] (1-Ethyl-3-(3-dimethylaminopropyl) carbodiimide), and 25 μg/ml of anti-mouse IgG (Fc) antibody was immobilized for 400 seconds at a rate of 10 μl/min. The remaining active ester groups were blocked with 1 M ethanolamine. T1.01m, T1.02m and T1.03m were diluted to 2 μg/ml and reacted on the CM5 chip immobilized with the anti-mouse IgG (Fc) antibody. The recombinant mouse FAP was diluted to 200 nM in 1×HBS-EP+buffer solution and diluted by serial dilution. The diluted recombinant mouse FAP was reacted at a rate of 30 μl/min. The association and dissociation times were 180 seconds and 400 seconds, respectively. After the dissociation, stabilization was performed for 60 seconds, and then a regeneration was performed for 30 seconds with a 10 mM glycine pH 1.5 solution at a rate of 30 μl/min.

In the next assay the test system is HEK-Blue IL-12 cells. Briefly: Signaling ability in IL-12 recognizing cells (STAT4 inducible SEAP reporter). The assay is classed as cell-based, human. To be noted: serial dilution from 4 nM, 24 hours, FIG. 18. How it is done:
The HEK-Blue IL-12 cell line transformed with the IL-12 receptor gene and the STAT4 inducible SEAP reporter gene into HEK293 cells, which are human embryonic kidney fibroblasts, was obtained from Invivogen (San Diego, USA). The HEK-Blue IL-12 cells were maintained in DMEM (GIBCO) containing 10% FBS (GIBCO), 100 μg/ml Normocin and 1×HEK-Blue selection.
Specifically, the HEK-Blue IL-12 cell line, which is an IL-12 recognizing cell, was diluted to 2.8×10^5 cells/ml and dispensed at 180 μl/well. Recombinant human IL-12, T1.01m, T1.02m, T1.03m and T1.12m were suspended at 4 nM and diluted by serial dilution. HEK-Blue IL-12 cells were treated with the diluted recombinant human IL-12, T1.01m, T1.02m, T1.03m and T1.12m. After 24 hours of treatment, the cell supernatant was collected and mixed with QUANTI-Blue Solution (Invivogen) in a 96-well plate. The reporter expression level was measured at 620 nm using a spectrophotometer (Thermo Fisher).

B1: T1.01m: K&H bispecific: anti-mu FAP/mu IL-12, mu IgG2a DANG (seq18, seq19, seq20) (antibody)
heavy: QVQLQQSGAELARPGASVNLSCKASGYTFTNNGINWLKQRTGQGLEWIGEIYPRSTNTLYNEKFKGKATLTADRSSNTAYMELRSLTSEDSAVYFCARTLTAPFAFWGQGTLVTVSAAKTTAPSVYPLAPVCGDTTGSSVTLGCLVKGYFPEPVTLTWNSGSLSSGVHTFPAVLQSDLYTLSSSVTVTSSTWPSQSITCNVAHPASSTKVDKKIEPRGPTIKPCPPCKCPAPNLLGGPSVFIFPPKIKDVLMISLSPIVTCVVVAVSEDDPDVQISWFVNNVEVHTAQTQTHREDYGSTLRVVSALPIQHQDWMSGKEFKCKVNNKDLPAPIERTISKPKGSVRAPQVYVLPPPEEEMTKKQVTLWCMVTDFMPEDIYVEWTNNGKTELNYKNTEPVLDSDGSYFMYSKLRVEKKNWVERNSYSCSVVHEGLHNHHTTKSFSRTPGK
light: QIVLTQSPAIMSASPGEKVTMTCSASSGVNFMHWYQQKSGTSPKRWIFDTSKLASGVPARFSGSGSGTSYSLTISSMEAEDAATYYCQQWSFNPPTFGGGTKLEIKRADAAPTVSIFPPSSEQLTSGGASVVCFLNNFYPKDINVKWKIDGSERQNGVLNSWTDQDSKDSTYSMSSTLTLTKDEYERHNSYTCEATHKTSTSPIVKSFNRNEC
chain: MWELEKDVYVVEVDWTPDAPGETVNLTCDTPEEDDITWTSDQRHGVIGSGKTLTITVKEFLDAGQYTCHKGGETLSHSHLLLHKKENGIWSTEILKNFKNKTFLKCEAPNYSGRFTCSWLVQRNMDLKFNIKSSSSSPDSRAVTCGMASLSAEKVTLDQRDYEKYSVSCQEDVTCPTAEETLPIELALEARQQNKYENYSTSFFIRDIIKPDPPKNLQMKPLKNSQVEVSWEYPDSWSTPHSYFSLKFFVRIQRKKEKMKETEEGCNQKGAFLVEKTSTEVQCKGGNVCVQAQDRYYNSSCSKWACVPCRVRSGGGGSGGGGSGGGGSRVIPVSGPARCLSQSRNLLKTTDDMVKTAREKLKHYSCTAEDIDHEDITRDQTSTLKTCLPLELHKNESCLATRETSSTTRGSCLPPQKTSLMMTLCLGSIYEDLKMYQTEFQAINAALQNHNHQQIILDKGMLVAIDELMQSLNHNGETLRQKPPVGEADPYRVKMKLCILLHAFSTRVVTINRVMGYLSSAGGGGSGGGGSEPRGPTIKPCPPCKCPAPNLLGGPSVFIFPPKIKDVLMISLSPIVTCVVVAVSEDDPDVQISWFVNNVEVHTAQTQTHREDYGSTLRVVSALPIQHQDWMSGKEFKCKVNNKDLPAPIERTISKPKGSVRAPQVYVLPPPEEEMTKKQVTLSCAVTDFMPEDIYVEWTNNGKTELNYKNTEPVLDSDGSYFMVSKLRVEKKNWVERNSYSCSVVHEGLHNHHTTKSFSRTPGK
As for B1, the “Binding to recombinant mouse FAP” value with recombinant mouse FAP is “may bind to recombinant mouse FAP to specifically target FAP”. Further, the “IL-12 recognition / STAT4 reporter gene expression (620 nm absorbance)” value with HEK-Blue IL-12 cells was “IL-12 was recognized, and STAT4 expressed a reporter gene by inducing phosphorylation”.
